Test results reported in PMC9751088, “Structure of the Acidobacteria homodimeric reaction center bound with cytochrome c” (Nature Communications, 2022).
Each block holds one molecule with its values, some of them ahead of it.

Assays:
[1] = target: T1, CabRC core (PscA homodimer) in the CabRC complex (Chloracidobacterium thermophilum, UniProt G2LDR8); assay: cryo-EM structure ([…] Å CabRCS; […] Å CabRCL); HPLC of pigments; format: binding; conditions: one transmembrane molecule in each PscA
T1 construct: gene Cabther_A2188; native complex from C. thermophilum membranes, Triton X-100, untagged; PscA homodimer with 11 TMHs each, insertion N440-H644; smaller form CabRCS without and larger form CabRCL with PscB and PscZ; with c-type cytochrome PscX; c-type cytochrome PscY; Reaction center subunit PscU; Reaction center subunit PscV; Reaction center subunit PscW

[2] = target: PscA (Chloracidobacterium thermophilum); assay: cryo-EM structure; CabRCS (smaller form, ten subunits), native complex purified from C. thermophilum membranes in Triton X-100; 2.22 Å; 20 mM Tris-HCl pH 7.6, 10 mM ascorbic acid, 0.03% Triton X-100
PscB = target: T2, PscB (Chloracidobacterium thermophilum, UniProt G2LDR7 1-179); assay: cryo-EM structure; CabRCL (larger form with PscB and PscZ), native complex purified from C. thermophilum membranes in Triton X-100; 2.61 Å global, cytoplasmic region ~3.5 to ~5.0 Å; 20 mM Tris-HCl pH 7.6, 10 mM ascorbic acid, 0.03% Triton X-100; conditions: both partners purified
T2 construct: Only in the larger form CabRCL; also called PscB/CabRC
T2 sequence (looked up): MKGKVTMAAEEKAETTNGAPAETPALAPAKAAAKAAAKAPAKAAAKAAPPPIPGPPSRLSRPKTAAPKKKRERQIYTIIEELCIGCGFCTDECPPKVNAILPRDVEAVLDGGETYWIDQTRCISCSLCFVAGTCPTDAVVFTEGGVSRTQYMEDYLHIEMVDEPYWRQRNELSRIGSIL

Molecule: CC(C)=CCC/C(C)=C/C=C/C(C)=C/C=C/C(C)=C/C=C/C=C(C)/C=C/C=C(C)/C=C/C=C(\C)CCC=C(C)C [lycopene]
- cryo-EM structure (2.22 Å CabRCS; 2.61 Å CabRCL); HPLC of pigments [1]: we identified one transmembrane lycopene molecule in each PscA

- stoichiometry N [2]: 2
Molecule: PscA (natural protein)

- binding result (PscB): binds
B1: PscZ (natural protein, Chloracidobacterium thermophilum, UniProt G2LHG2 1-60, looked up)
chain: MARTPEEIVKRYKEANIWLRHWKQQIGLAKDEEQREMFTQYYEERVQEIAALEEPYRAAL
notes: Only in the larger form CabRCL
